The values below come from publication PMC6105367 (The FEBS journal, 2018).

This series concerns the molecule itself. As to the kind of experiment: negative-stain electron microscopy.

B1: full-length zebrafish ASC, recombinant, His-NusA-GB1 tag cleaved off (natural protein, UniProt Q9I9N6 1-203, looked up)
chain: MAESFKEHLQEAFEDLGADNLRKFKSKLGDRRQEPRVTKSAIEKLKDEIDLADLMVGVFTSKDAVSVTVEILRAIKCNAVADDLLRNTGQSESKGALSDESKCASSKAVSKVAFSKVNFIDEHWKELIDRVNNVDPILDILRQKKVITNEDYCTIRNKETPQKKMRELLTGPITCAGNKGKEVLYDALRESNKFLMDDLEDAE
For B1, the binding result is listed as “binds”.
